Results on 57 substances are retold here after the supplement of paper PMC12042874.

± gives the uncertainty stated by the source.

The data set in a line: amyloid nucleation score (Sup35N fusion, yeast selection) (log enrichment); library NNK2; higher = more nucleation; inactive = no reads after selection. Summed up:
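Peptides of 20 random codons fused to Sup35N were expressed in psi-negative yeast, induced 24 hours with 100 μM copper sulfate, then grown 7 days at 30°C on medium lacking adenine and uracil. Input and output plasmid inserts were Illumina-sequenced. Nucleation score is the DiMSum log enrichment of output over input reads, centred on the mode score of non-aggregating sequences, excluding sequences with under 100 input reads. Random libraries had three technical output replicates.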
LTIRGKVTSTVAMLLDFLDS: the amyloid nucleation score is 5.86 ± 0.062. The result for TSECPVWNSFYVQNGSDLSI reads 1.34 ± 0.14; that for NRKWIDRLVYKGNNPYHGEV, 0.906 ± 0.57. The result for IRGGHTLSYRVEDKRPTEWG reads 2.04 ± 0.2. The result for MDWVQGAFMPRGSGHWHN reads -0.327 ± 0.79. For AWESNCIVRFKY, the amyloid nucleation score is 4.36 ± 0.089. The result for SSDTIQYYSKQNMVRRENC reads 1.09 ± 0.52. The result for HIIGLIYQKGTSWTA reads 4.85 ± 0.073; that for SMRYNTSLRWDWVDQDAHRL, 4.25 ± 0.068; that for HRSMPIRYWVVTIWYGRSDS, 0.569 ± 0.41. The substance FDQLPRVFNYRLAILWAVYR returned an amyloid nucleation score of -0.627 ± 0.79. The figure for SGYDFHVRMTCCIWH is 9.166 ± 0.04; for LIAQMM it is -1.22 ± 0.48; for HIWRHDRVLLGSSNTKYMCG it is 0.759 ± 0.8. The figure for NFSAFGRFNLNLWMNNITRL is 4.05 ± 0.077. The figure for SHSYGTER is 4.64 ± 0.074. On to VYTCSIFYLGLVYRHISDSS, for which the amyloid nucleation score entry was “inactive”.

In the case of FVLNYLI, the amyloid nucleation score was found to be 0.709 ± 0.17. The figure for SSRLAKIHSMGWFFIFLGIS is -1.22 ± 1. The result for LIPIRALRHYFRFIVCV reads -0.142 ± 0.61; that for ILVWLGQTEEASVDRRAQHT, 0.43 ± 0.32; that for SSLDNIWSTSD, 0.337 ± 0.57.

In turn, TQNTTYNAYMNLKE showed an amyloid nucleation score of -1.24 ± 1.1.

VPLEYSRVI registered an amyloid nucleation score of 2.15 ± 0.15. Turning to GQGKRNVSLSNGGDKFNLDV, the amyloid nucleation score is 4.98 ± 0.1.

Consider YYQYGWEYARLWLIDNILHG, for which the amyloid nucleation score is -0.064 ± 1.1. The result for TMSVDCWLCNLRMEMFLELY reads -1.54 ± 0.75. Consider RCGASSCNRLGPPMLNNRAM, for which the amyloid nucleation score is -1.6 ± 0.75. The result for MISRCDWFWSKLKTSL reads 2.29 ± 0.06; that for FNYPSLFTF, -1.01 ± 1.1. The figure for GQIAKVKPVRWKFKTTTWGS is 1.26 ± 0.41; for DLAFFMLHYLHIRRCKDYPR it is “inactive”; for MYVMTHNL it is 0.776 ± 0.44. As for VVSITNINNMSSMRSEPEYK, the amyloid nucleation score came to 6.98 ± 0.078. The result for GFDYLIFLNKHRLVMSWSFE reads -0.675 ± 1.1; that for GFVDTTLCMVNLFYGRKSHL, 7.862 ± 0.047. The entry for VNTNPMVAVPGMYIYYRWFL is “inactive”; for LMINGRLRDITMDATVYCNS it is 0.764 ± 0.2. Take MQWETSGVLCWSKQFGGDWV: the amyloid nucleation score was 0.864 ± 0.23.

For NIVRYAMELCDIN, the amyloid nucleation score was 4.08 ± 0.1. With LVSMLVFL, the amyloid nucleation score is 2.15 ± 0.15. The figure for NGLGLTIWL is 0.448 ± 0.22; for FCTHSQARDQVNSNHTMALL it is 2.84 ± 0.064. The result for EIWRFLQHRGIYYFFWSFEK reads “inactive”; that for YIVCLMESIRI, 3.2 ± 0.17. As to HYLAIVTWLPYRCRF, the amyloid nucleation score stood at 0.935 ± 0.15. VVFCGVFLCDCDNGESSSRY displayed an amyloid nucleation score of 8.989 ± 0.071.

As for VYMFCRGGTHEAYFFHTGLC, the amyloid nucleation score is -0.256 ± 0.79.

On to RFCGVVLSHSSD, for which the amyloid nucleation score was determined as 7.913 ± 0.03.

PCWLNGWERFHIWRFNGSVR: the amyloid nucleation score was -0.281 ± 0.37. The figure for MWNQDLSFFCITRDIKVCTF is 4.87 ± 0.06; for RRLSNRRWLIFCQWSFHYGV it is 0.242 ± 0.61; for YWYASSSSNIWYPEVCKCPV it is -0.77 ± 0.79.

In turn, IYSGETYKTWLFHGINV displayed an amyloid nucleation score of -1.4 ± 0.62.

VTCGV showed an amyloid nucleation score of 0.179 ± 0.56. The figure for RLCAWEVNPARSKAGAV is 0.886 ± 0.57. The figure for IGIIYFIARFAVVPRSGIRQ is -0.114 ± 1.
